Laboratory results: article doi:10.1101/2020.02.11.943159 (bioRxiv, 2020)
Where no end group is shown, it is not given here.

T1: pS2pS5 CTD diheptapeptide (also: pS2pS5: Ser2 and Ser5 phosphorylated, which heptad repeat(s) not given here)
T1 peptide: YSPTSPSYSPTSPS

T2: pS2pS7 CTD diheptapeptide (also: pS2pS7: Ser2 and Ser7 phosphorylated, which heptad repeat(s) not given here)
T2 peptide: YSPTSPSYSPTSPS

T3: pS2 CTD diheptapeptide (also: pS2: Ser2 phosphorylated, which heptad repeat(s) not given here)
T3 peptide: YSPTSPSYSPTSPS

B1: PHF3 SPOC R1248A mutant, bacterially expressed (domain or fragment)
chain: STFLARLNFIWKGFINMPSVAKFVTKAYPVSGSPEYLTEDLPDSIQVGGAISPQTVWDYVEKIKASGTKEICVVRFTPVTEEDQISYTLLFAYFSSRKRYGVAANNMKQVKDMYLIPLGATDKIPHPLVPFDGPGLELHRPNLLLGLIIRQKLKRQHS

Tests used:
[1] = biological target: pS2pS5 CTD diheptapeptide; test: fluorescence correlation spectroscopy
pS2 CTD diheptapeptide [2] = test: fluorescence correlation spectroscopy
[3] = biological target: T1, pS2pS5 CTD diheptapeptide; test: fluorescence polarisation
[4] = biological target: T2, pS2pS7 CTD diheptapeptide; test: fluorescence polarisation
pS2 CTD diheptapeptide [5] = biological target: T3, pS2 CTD diheptapeptide; test: fluorescence polarisation

Molecule | stoichiometry N [1] | stoichiometry N (pS2 CTD diheptapeptide [2]) | fold reduction of binding against SPOC WT [3] | fold reduction of binding against SPOC WT [4] | fold reduction of binding against SPOC WT (pS2 CTD diheptapeptide [5])
PHF3 SPOC domain (1199-1356aa), bacterially expressed (from UniProt Q92576 1199-1356) (domain or fragment) | 1 | 1 | – | – | –
B1 | – | – | > 10 fold | > 10 fold | > 10 fold
